Key:
Format in all cases: in vivo, NOD/SCID mice
[1] = Small animal PET/CT imaging, H2009 tumor bearing mice; settings: NOD/SCID, mouse, iv, total radioactivity
[2] = test system: H2009 (αvβ6^+) xenografts; assay: as above; settings: for Tumor uptake: quantitative PET, mean ± s.d.; for Tumor uptake / Tumor/Lung: n = 3; for Tumor/Lung: ratio of PET uptakes; for tumor uptake increase as compared to 64Cu-M10: H2009 tumor, all three time points (1 h, 4 h, 24 h p.i.)
[3] = Small animal PET/CT imaging, H460 tumor bearing mice; settings: NOD/SCID, mouse, iv, total radioactivity
H460 (αvβ6^-) xenografts = assay: as above; settings: H460 tumor bearing mice, quantitative PET, mean ± s.d., n = 3
[4] = H2009 tumor bearing mice, 1 h p.i.
[5] = H2009 tumor bearing mice, 4 h p.i.
[6] = H2009 tumor bearing mice, 24 h p.i.

Work on `CC(=O)N[C@@H](CCCNC(=N)N)C(=O)NCC(=O)N[C@@H](CC(=O)O)C(=O)N[C@@H](CC(C)C)C(=O)N[C@@H](C)C(=O)N[C@H](C(=O)N[C@@H](CC(C)C)C(=O)N[C@@H](CCCNC(=N)N)C(=O)N[C@@H](CCC(N)=O)C(=O)N[C@@H](CC(C)C)C(=O)NCCOCCOCCOCCOCCOCCOCCOCCOCCOCCOCCOCCOCCC(=O)N[C@@H](CSC1CC(=O)N(CCC(=O)NCCCC[C@H](NC(=O)CCN2C(=O)CC(SC[C@H](NC(=O)CCOCCOCCOCCOCCOCCOCCOCCOCCOCCOCCOCCOCCNC(=O)[C@H](CC(C)C)NC(=O)[C@H](CCC(N)=O)NC(=O)[C@H](CCCNC(=N)N)NC(=O)[C@H](CC(C)C)NC(=O)[C@@H](NC(=O)[C@H](C)NC(=O)[C@H](CC(C)C)NC(=O)[C@H](CC(=O)O)NC(=O)CNC(=O)[C@H](CCCNC(=N)N)NC(C)=O)[C@@H](C)O)C(N)=O)C2=O)C(=O)NCCC(=O)N[C@@H](CSC2CC(=O)N(CCNC(=O)CCC(C(=O)O)N3CCCN4CCN(CCCN(CC(=O)O)CC4)CC3)C2=O)C(N)=O)C1=O)C(N)=O)[C@@H](C)O` (some centres unmarked) [^64Cu-AcD10, metal not drawn] yielded a tissue uptake at 1 h ([1]; heart) of 0.78 ± 0.05 %ID/g, a tissue uptake at 24 h ([1]; heart) of 0.21 ± 0.01 %ID/g and a tissue uptake at 1 h ([1]; kidney) of 18.8 ± 2.2 %ID/g. It also gave a tissue uptake at 4 h ([1]; kidney) of 19.1 ± 3.3 %ID/g, a tissue uptake at 24 h ([1]; kidney) of 5.4 ± 0.87 %ID/g and a tissue uptake at 1 h ([1]; liver) of 1.08 ± 0.11 %ID/g. The tissue uptake at 4 h ([1]; liver) was 0.72 ± 0.09 %ID/g, the tissue uptake at 24 h ([1]; liver) was 0.55 ± 0.1 %ID/g and the tissue uptake at 1 h ([1]; lung) was 1.33 ± 0.23 %ID/g. The tissue uptake at 4 h ([1]; lung) was 0.65 ± 0.03 %ID/g, the tissue uptake at 24 h ([1]; lung) was 0.34 ± 0.08 %ID/g and the tissue uptake at 1 h ([1]; muscle) was 0.83 ± 0.14 %ID/g. For the same compound, the tissue uptake at 4 h ([1]; muscle) was 0.42 ± 0.05 %ID/g, the tissue uptake at 24 h ([1]; muscle) was 0.32 ± 0.1 %ID/g and the Tumor uptake [2, 4] was 1.46 ± 0.15 %ID/g. For the same compound, the Tumor/Lung [2, 4] was 1.1 ± 0.27, the Tumor uptake [2, 5] was 0.98 ± 0.01 %ID/g and the Tumor/Lung [2, 5] was 1.51 ± 0.03. For the same compound, the Tumor uptake [2, 6] was 0.68 ± 0.02 %ID/g, the Tumor/Lung [2, 6] was 2.0 ± 0.08 and the “tumor uptake increase as compared to 64Cu-M10” value [2] was ~3 fold. For the same compound, the tissue uptake at 1 h ([3]; heart) was 0.82 ± 0.05 %ID/g, the tissue uptake at 4 h ([3]; heart) was 0.5 ± 0.04 %ID/g and the tissue uptake at 24 h ([3]; heart) was 0.26 %ID/g. For the same compound, the tissue uptake at 1 h ([3]; kidney) was 19.5 ± 0.36 %ID/g, the tissue uptake at 4 h ([3]; kidney) was 18.4 ± 0.92 %ID/g and the tissue uptake at 24 h ([3]; kidney) was 3.43 ± 1.8 %ID/g. For the same compound, the tissue uptake at 1 h ([3]; liver) was 1.13 ± 0.15 %ID/g, the tissue uptake at 4 h ([3]; liver) was 0.95 ± 0.06 %ID/g and the tissue uptake at 24 h ([3]; liver) was 0.71 ± 0.04 %ID/g. For the same compound, the tissue uptake at 1 h ([3]; lung) was 1.02 ± 0.06 %ID/g, the tissue uptake at 4 h ([3]; lung) was 0.65 ± 0.02 %ID/g and the tissue uptake at 24 h ([3]; lung) was 0.24 ± 0.1 %ID/g. The tissue uptake at 1 h ([3]; muscle) was 0.61 ± 0.12 %ID/g, the tissue uptake at 4 h ([3]; muscle) was 0.35 ± 0.05 %ID/g and the tissue uptake at 24 h ([3]; muscle) was 0.19 ± 0.13 %ID/g. For the same compound, the Tumor uptake (H460 (αvβ6^-) xenografts; 1 h p.i.) was 0.73 ± 0.13 %ID/g, the Tumor uptake (H460 (αvβ6^-) xenografts; 4 h p.i.) was 0.45 ± 0.11 %ID/g and the Tumor uptake (H460 (αvβ6^-) xenografts; 24 h p.i.) was 0.35 ± 0.05 %ID/g.

With `CC(C)C[C@H](NC(=O)[C@H](CCC(N)=O)NC(=O)[C@H](CCCNC(=N)N)NC(=O)[C@H](CC(C)C)NC(=O)[C@@H](NC(=O)[C@H](C)NC(=O)[C@H](CC(C)C)NC(=O)[C@H](CC(=O)O)NC(=O)CNC(=O)[C@@H](N)CCCNC(=N)N)[C@@H](C)O)C(=O)NCCOCCOCCOCCOCCOCCOCCOCCOCCOCCOCCOCCOCCC(=O)N[C@@H](CSC1CC(=O)N(CCNC(=O)CCC(C(=O)O)N2CCCN3CCN(CCCN(C(CCC(=O)NCCN4C(=O)CC(SC[C@H](NC(=O)CCOCCOCCOCCOCCOCCOCCOCCOCCOCCOCCOCCOCCNC(=O)[C@H](CC(C)C)NC(=O)[C@H](CCC(N)=O)NC(=O)[C@H](CCCNC(=N)N)NC(=O)[C@H](CC(C)C)NC(=O)[C@@H](NC(=O)[C@H](C)NC(=O)[C@H](CC(C)C)NC(=O)[C@H](CC(=O)O)NC(=O)CNC(=O)[C@@H](N)CCCNC(=N)N)[C@@H](C)O)C(N)=O)C4=O)C(=O)O)CC3)CC2)C1=O)C(N)=O` (some centres unmarked) [^64Cu-(M10)2, metal not drawn] the tissue uptake at 1 h ([1]; heart) was 1.56 ± 0.15 %ID/g, the tissue uptake at 4 h ([1]; heart) was 0.71 ± 0.03 %ID/g and the tissue uptake at 24 h ([1]; heart) was 0.32 ± 0.03 %ID/g. It also gave a tissue uptake at 1 h ([1]; kidney) of 53.6 ± 8.68 %ID/g, a tissue uptake at 4 h ([1]; kidney) of 46.2 ± 10.4 %ID/g and a tissue uptake at 24 h ([1]; kidney) of 27.3 ± 7.3 %ID/g. It also gave a tissue uptake at 1 h ([1]; liver) of 2.13 ± 0.73 %ID/g, a tissue uptake at 4 h ([1]; liver) of 1.9 %ID/g and a tissue uptake at 24 h ([1]; liver) of 1.26 ± 0.25 %ID/g. For the same compound, the tissue uptake at 1 h ([1]; lung) was 1.66 ± 0.15 %ID/g, the tissue uptake at 4 h ([1]; lung) was 0.72 ± 0.02 %ID/g and the tissue uptake at 24 h ([1]; lung) was 0.4 ± 0.03 %ID/g. For the same compound, the tissue uptake at 1 h ([1]; muscle) was 0.87 ± 0.04 %ID/g, the tissue uptake at 4 h ([1]; muscle) was 0.3 ± 0.02 %ID/g and the tissue uptake at 24 h ([1]; muscle) was 0.25 ± 0.05 %ID/g. The “increase of kidney uptake as compared to 64Cu-M10” value ([2]; H2009 tumor bearing mice, 1 h, 4 h, 24 h p.i.) was ~6 fold, the Tumor uptake [2, 4] was 1.6 ± 0.20 %ID/g and the Tumor/Lung [2, 4] was 1.0 ± 0.25. The Tumor uptake [2, 5] was 0.85 ± 0.19 %ID/g, the Tumor/Lung [2, 5] was 1.2 ± 0.19 and the Tumor uptake [2, 6] was 0.79 ± 0.03 %ID/g. For the same compound, the Tumor/Lung [2, 6] was 1.9 ± 0.04, the “tumor uptake increase as compared to 64Cu-M10” value [2] was ~3 fold and the tissue uptake at 1 h ([3]; heart) was 1.7 %ID/g. The tissue uptake at 4 h ([3]; heart) was 1.25 ± 0.07 %ID/g, the tissue uptake at 24 h ([3]; heart) was 0.83 ± 0.17 %ID/g and the tissue uptake at 1 h ([3]; kidney) was 85.4 ± 17.5 %ID/g. For the same compound, the tissue uptake at 4 h ([3]; kidney) was 92.9 ± 11.3 %ID/g, the tissue uptake at 24 h ([3]; kidney) was 68.9 ± 8.13 %ID/g and the tissue uptake at 1 h ([3]; liver) was 5.45 ± 0.49 %ID/g. For the same compound, the tissue uptake at 4 h ([3]; liver) was 4.8 ± 0.14 %ID/g, the tissue uptake at 24 h ([3]; liver) was 3.25 ± 0.21 %ID/g and the tissue uptake at 1 h ([3]; lung) was 1.5 ± 0.14 %ID/g. The tissue uptake at 4 h ([3]; lung) was 1.15 ± 0.07 %ID/g, the tissue uptake at 24 h ([3]; lung) was 0.77 ± 0.01 %ID/g and the tissue uptake at 1 h ([3]; muscle) was 0.45 ± 0.18 %ID/g. It also gave a tissue uptake at 4 h ([3]; muscle) of 0.31 ± 0.06 %ID/g, a tissue uptake at 24 h ([3]; muscle) of 0.38 ± 0.08 %ID/g and a Tumor uptake (H460 (αvβ6^-) xenografts; 1 h p.i.) of 0.71 ± 0.05 %ID/g. For the same compound, the Tumor uptake (H460 (αvβ6^-) xenografts; 4 h p.i.) was 0.83 ± 0.04 %ID/g and the Tumor uptake (H460 (αvβ6^-) xenografts; 24 h p.i.) was 0.53 ± 0.17 %ID/g.

Source: publication PMC4038756 (Theranostics, 2014)
